Laboratory results published in PMC2275626.
Values joined by “and” are separate entries in the source; they are usually repeats but may differ in a detail not shown here. Equal entries are not always repeated.

Target: acetamidofluorescein-F-actin on antifluorescein IgG-Sephacryl S-1000 beads (rabbit) (UniProt P68135)
Assay: co-sedimentation

myosin subfragment-1 (domain or fragment), sequence (Q28641 whole entry, the tested form may be a part): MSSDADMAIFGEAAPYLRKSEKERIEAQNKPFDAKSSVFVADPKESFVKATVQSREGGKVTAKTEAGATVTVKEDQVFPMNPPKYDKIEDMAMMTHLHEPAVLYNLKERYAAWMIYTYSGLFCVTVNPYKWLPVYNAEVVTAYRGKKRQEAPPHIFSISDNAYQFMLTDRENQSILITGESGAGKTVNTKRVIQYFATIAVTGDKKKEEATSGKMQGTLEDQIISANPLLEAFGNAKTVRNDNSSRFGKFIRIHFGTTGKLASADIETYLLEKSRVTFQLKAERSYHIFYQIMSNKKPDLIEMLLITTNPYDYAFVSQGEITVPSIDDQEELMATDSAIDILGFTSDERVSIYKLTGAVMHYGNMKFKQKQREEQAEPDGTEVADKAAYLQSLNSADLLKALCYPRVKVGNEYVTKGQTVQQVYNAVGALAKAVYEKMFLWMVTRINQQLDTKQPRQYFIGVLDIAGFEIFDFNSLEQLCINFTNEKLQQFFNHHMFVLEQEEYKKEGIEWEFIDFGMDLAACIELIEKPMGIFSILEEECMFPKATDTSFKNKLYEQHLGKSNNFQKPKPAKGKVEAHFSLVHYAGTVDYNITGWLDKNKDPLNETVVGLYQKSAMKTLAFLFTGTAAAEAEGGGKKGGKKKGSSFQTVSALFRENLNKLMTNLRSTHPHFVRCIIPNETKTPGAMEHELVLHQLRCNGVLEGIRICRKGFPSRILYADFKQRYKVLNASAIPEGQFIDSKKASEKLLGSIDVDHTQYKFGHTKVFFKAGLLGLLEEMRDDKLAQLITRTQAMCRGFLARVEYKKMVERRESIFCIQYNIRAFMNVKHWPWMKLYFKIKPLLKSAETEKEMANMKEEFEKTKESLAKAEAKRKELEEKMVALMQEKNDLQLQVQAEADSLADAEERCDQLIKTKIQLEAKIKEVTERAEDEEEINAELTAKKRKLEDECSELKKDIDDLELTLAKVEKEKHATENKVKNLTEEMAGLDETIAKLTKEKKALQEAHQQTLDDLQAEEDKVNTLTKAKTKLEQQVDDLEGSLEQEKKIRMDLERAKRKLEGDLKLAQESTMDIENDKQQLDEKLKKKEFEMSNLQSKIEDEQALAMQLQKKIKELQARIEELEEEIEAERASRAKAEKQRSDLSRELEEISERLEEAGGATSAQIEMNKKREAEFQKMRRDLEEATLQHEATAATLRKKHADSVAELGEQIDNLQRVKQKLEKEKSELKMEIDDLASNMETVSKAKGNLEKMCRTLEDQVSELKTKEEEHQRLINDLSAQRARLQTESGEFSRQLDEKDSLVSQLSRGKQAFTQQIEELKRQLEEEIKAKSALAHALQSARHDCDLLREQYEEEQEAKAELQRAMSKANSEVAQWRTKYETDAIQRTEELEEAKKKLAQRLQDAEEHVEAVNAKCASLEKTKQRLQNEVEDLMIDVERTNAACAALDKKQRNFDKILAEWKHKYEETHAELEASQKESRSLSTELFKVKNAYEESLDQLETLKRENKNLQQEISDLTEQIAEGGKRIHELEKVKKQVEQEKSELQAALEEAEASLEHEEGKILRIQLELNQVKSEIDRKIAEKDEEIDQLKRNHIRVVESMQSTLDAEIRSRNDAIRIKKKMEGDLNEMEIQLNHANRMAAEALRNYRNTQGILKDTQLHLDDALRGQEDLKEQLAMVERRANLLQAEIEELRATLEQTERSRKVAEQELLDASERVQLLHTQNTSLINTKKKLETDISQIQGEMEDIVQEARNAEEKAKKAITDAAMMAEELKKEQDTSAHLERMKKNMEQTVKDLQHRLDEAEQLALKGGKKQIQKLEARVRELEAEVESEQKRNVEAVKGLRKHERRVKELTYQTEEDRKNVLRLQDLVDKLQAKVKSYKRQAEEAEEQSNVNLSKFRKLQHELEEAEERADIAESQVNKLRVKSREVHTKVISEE

Ki: 40 nM and 25 nM and 80 nM
Substance: myosin subfragment-1 (domain or fragment)
